The source of these data is article PMC8461876, “Automation assisted anaerobic phenotyping for metabolic engineering” (Microbial Cell Factories, 2021).

The term Km denotes the concentration of substrate that gives half-maximal velocity.

Substrate in the series: O=C1C=CCCC1
Kind of series: purified protein. Format: biochemical, Bacillus subtilis. The note with it: 0.15 mM NADPH, 40 mM HEPES pH 7.5, 35 °C, anaerobic (glucose oxidase/glucose), 15 nM enzyme.

B1: enoate reductase YqjM (Bs-YqjM) (Bacillus subtilis subsp. subtilis str. 168) (protein)
chain: MARKLFTPITIKDMTLKNRIVMSPMCMYSSHEKDGKLTPFHMAHYISRAIGQVGLIIVEASAVNPQGRITDQDLGIWSDEHIEGFAKLTEQVKEQGSKIGIQLAHAGRKAELEGDIFAPSAIAFDEQSATPVEMSAEKVKETVQEFKQAAARAKEAGFDVIEIHAAHGYLIHEFLSPLSNHRTDEYGGSPENRYRFLREIIDEVKQVWDGPLFVRVSASDYTDKGLDIADHIGFAKWMKEQGVDLIDCSSGALVHADINVFPGYQVSFAEKIREQADMATGAVGMITDGSMAEEILQNGRADLIFIGRELLRDPFFARTAAKQLNTEIPAPVQYERGW
notes: full gene, N-terminal 6xHis tag (p15TvL), tag cleavage not mentioned; expressed in E. coli LOBSTR BL21(DE3); FMN loaded
Regarding B1, the Km worked out at 350 ± 60 µM.
